# Measured values taken from patent publication US20230250154.
# Assays:
# [1] = system: T1, Tagged wild-type human A2M
# T1 sequence: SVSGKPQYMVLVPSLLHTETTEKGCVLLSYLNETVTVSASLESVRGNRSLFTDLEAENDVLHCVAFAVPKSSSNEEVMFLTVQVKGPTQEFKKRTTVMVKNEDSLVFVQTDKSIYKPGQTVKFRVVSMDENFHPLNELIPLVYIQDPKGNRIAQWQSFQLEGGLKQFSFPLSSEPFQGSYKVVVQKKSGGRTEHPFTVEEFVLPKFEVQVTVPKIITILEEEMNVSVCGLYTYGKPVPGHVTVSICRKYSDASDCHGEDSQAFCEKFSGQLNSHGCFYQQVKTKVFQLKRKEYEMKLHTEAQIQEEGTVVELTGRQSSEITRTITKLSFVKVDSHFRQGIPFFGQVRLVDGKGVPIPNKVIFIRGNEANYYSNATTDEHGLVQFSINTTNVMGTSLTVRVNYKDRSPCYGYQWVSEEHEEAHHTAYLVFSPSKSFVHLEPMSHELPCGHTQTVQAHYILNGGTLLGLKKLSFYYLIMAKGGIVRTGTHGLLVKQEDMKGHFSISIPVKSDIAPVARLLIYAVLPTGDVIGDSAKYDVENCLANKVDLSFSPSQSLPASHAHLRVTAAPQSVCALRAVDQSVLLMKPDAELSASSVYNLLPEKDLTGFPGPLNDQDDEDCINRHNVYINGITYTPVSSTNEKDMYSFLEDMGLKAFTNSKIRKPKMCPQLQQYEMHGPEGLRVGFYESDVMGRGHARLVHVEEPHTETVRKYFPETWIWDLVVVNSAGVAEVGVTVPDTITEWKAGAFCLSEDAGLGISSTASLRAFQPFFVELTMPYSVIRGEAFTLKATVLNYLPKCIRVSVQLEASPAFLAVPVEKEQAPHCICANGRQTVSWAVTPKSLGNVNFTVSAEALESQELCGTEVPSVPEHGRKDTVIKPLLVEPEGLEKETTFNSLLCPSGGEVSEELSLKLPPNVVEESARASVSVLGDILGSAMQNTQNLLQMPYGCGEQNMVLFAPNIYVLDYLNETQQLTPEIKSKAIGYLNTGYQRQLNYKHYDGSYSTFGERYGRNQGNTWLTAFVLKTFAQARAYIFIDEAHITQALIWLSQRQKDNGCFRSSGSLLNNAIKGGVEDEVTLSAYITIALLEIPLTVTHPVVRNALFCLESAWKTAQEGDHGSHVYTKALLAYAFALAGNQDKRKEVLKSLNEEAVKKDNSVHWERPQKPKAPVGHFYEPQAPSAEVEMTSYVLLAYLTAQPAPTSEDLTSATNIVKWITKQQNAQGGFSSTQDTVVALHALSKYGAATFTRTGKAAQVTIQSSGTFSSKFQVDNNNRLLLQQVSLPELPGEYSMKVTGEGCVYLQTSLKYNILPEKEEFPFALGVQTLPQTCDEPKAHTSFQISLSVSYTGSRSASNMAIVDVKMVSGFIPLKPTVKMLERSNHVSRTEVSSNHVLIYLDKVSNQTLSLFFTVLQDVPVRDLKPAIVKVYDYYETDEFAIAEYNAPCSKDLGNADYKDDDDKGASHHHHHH
# [2] = system: the four selected A2M variants
substance,measurement,setting,value
chymotrypsin,slope of FTC-casein digestion (fluorescent proteolysis assay),[1],"the variants are all capable of inhibiting various proteases, including trypsin and chymotrypsin approximately equally, to the wild-type A2M"
same,slope of FTC-casein digestion (fluorescent proteolysis assay),[2],"the variants are all capable of inhibiting various proteases, including trypsin and chymotrypsin approximately equally, to the wild-type A2M"
